From patent US9260500B2, “Peptide and use thereof” (Takeda Pharmaceutical Company Limited, priority 2009, dated 2016)
Starred links: 1 amine or outer side, 2 acyl side, 3 side chain; linkers in the order of their positions; H or OH if unused. Non-standard residues stand in square brackets, D forms with d. *: point of attachment. X11 = ((1S)-1-carboxy-3-methylbutyl)carbamoyl, CC(C)C[C@H](NC(=O)*)C(=O)O; Ala(piperidin-4-yl) = O=C([C@H](CC1CCN([*:3])CC1)N[*:1])[*:2]; X5 = tetrahydro‑2H‑pyran‑4‑yl‑carbamoyl, O=C(NC1CCOCC1)*; tBuAla = CC(C)(C)C[C@H](N)C(=O)O; 4Pal = N[C@@H](Cc1ccncc1)C(=O)O; dHyp = O=C(O)[C@H]1C[C@H](O)CN1; Cha = N[C@@H](CC1CCCCC1)C(=O)O; Suc = O=C(CCC(=O)[*:2])[*:1]; dIva = CC[C@@](C)(N)C(=O)O; Iva = CC[C@](C)(N)C(=O)O; Nle = CCCC[C@H](N)C(=O)O; Aib = CC(C)(N)C(=O)O

How the values were obtained:
[1] = biological target: T1, human Y2 receptor (Homo sapiens, UniProt P49146); test: Receptor Binding Assay (RBA) for Human Y2, [125I]-PYY displacement on hY2R/CHO membrane fraction; settings: IC50 of test compound/IC50 of PYY(3-36) (PYY(3-36) taken as 1)
T1 construct: expressed in transfected cells; membrane fraction
T1 sequence (P49146 1-381): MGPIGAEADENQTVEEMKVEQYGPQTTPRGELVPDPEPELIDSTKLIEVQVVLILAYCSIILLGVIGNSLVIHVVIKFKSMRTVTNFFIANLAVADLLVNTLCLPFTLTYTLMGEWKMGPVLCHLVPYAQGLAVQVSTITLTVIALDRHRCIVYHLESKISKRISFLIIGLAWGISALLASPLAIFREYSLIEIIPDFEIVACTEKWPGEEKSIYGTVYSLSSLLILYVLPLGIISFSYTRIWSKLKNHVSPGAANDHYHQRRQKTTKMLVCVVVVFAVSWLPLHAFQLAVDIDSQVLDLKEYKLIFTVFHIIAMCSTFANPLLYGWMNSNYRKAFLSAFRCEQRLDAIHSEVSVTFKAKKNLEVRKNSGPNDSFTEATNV
Method in brief: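 Read-out is [125I]-PYY displacement from membranes of CHO/dhfr− cells stably transfected with human Y2R. Membranes were obtained by disrupting cells in a buffer of 10 mM NaHCO3, 5 mM EDTA and protease inhibitors.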

[2] = biological target: T1, human Y2 receptor; test: Human Y2 Receptor G Protein Binding Assay (GBA), [35S]GTPγS; type: biochemical; settings: EC50 of test compound/EC50 of PYY(3-36) (PYY3-36 taken as 1), hY2R/CHO membrane fraction
Method in brief: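 Agonism measured as [35S]GTPγS binding, read by GF/C filtration and scintillation counting after 120 min at room temperature, using human Y2 membranes at 1 μg protein/mL in pH 7.4 Tris/MgCl2/NaCl/GDP buffer. Compound serially diluted 100 μM–1 nM; EC50 normalized to PYY(3-36) (ratio = compound/PYY).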

[3] = system: male C57EL/6J mice; test: 3-Days Continuous Subcutaneous Administration Test-1 (food intake suppressing activity); type: in vivo, mouse; settings: 0.03 mg/kg/day, subcutaneous Alzet pump, food consumption over 3 days; relative to food intake suppression rate for PYY(3-36) (1 mg/kg/day) taken as 100%
Procedure: (4) Test Method: 3-Days Continuous Subcutaneous Administration Test-1
The food intake suppressing activity of the compound of the present invention was examined by the method described below.
The test compound was dissolved in 50% DMSO so that sustained release would occur at 0.03 mg/kg/day, and the solution was filled in the Alzet Pump (Alzet model: 1003D, sustained release rate: 1 μL/hr, capacity: 100 μL). After the filling, the pump was placed in a 2 mL Eppendorf tube containing 330 μL of physiological saline, and incubated at 37° C. for 2 hours or more. Thereafter, this pump was subcutaneously embedded in the back of each mouse by the method described below. After weighing, each male […] mice at 12-13 weeks of age (25° C., allowed to take food and water ad libitum; 12-hour bright-12-hour dark cycle, lighting turned on at 08:00) was anesthetized with diethyl ether; the skin in the upper back thereof was incised, and the above-mentioned pump was embedded subcutaneously. Thereafter, several drops of penicillin solution (100000 units/mL) were added to the incised part, and the incision was sutured using Michel's surgical needle. This mouse was returned to the rearing cage (reared alone), and given previously weighed food; 3 days later, the amount of remaining food was measured. Food consumption was calculated by subtracting the amount of remaining food after 3 days from the weight of the food given on the day of pump embedding. The food intake suppressing activity of each test compound was expressed as a food intake suppression rate (%) relative to the food intake suppression rate for PYY(3-36) (1 mg/kg/day) taken as 100%.

With “Ac-[D-Pro24, Nle25, Pya(4)26, Cha27,36, Aib28,31, Lys30]-PYY(23-36) (Ac-S[dP][Nle][4Pal][Cha][Aib]NK[Aib]TRQR[Cha]-NH2; SMILES CCCC[C@H](NC(=O)[C@H]1CCCN1C(=O)[C@H](CO)NC(C)=O)C(=O)N[C@@H](Cc1ccncc1)C(=O)N[C@@H](CC1CCCCC1)C(=O)NC(C)(C)C(=O)N[C@@H](CC(N)=O)C(=O)N[C@@H](CCCCN)C(=O)NC(C)(C)C(=O)N[C@H](C(=O)N[C@@H](CCCNC(=N)N)C(=O)N[C@@H](CCC(N)=O)C(=O)N[C@@H](CCCNC(=N)N)C(=O)N[C@@H](CC1CCCCC1)C(N)=O)[C@@H](C)O) [compound No. 224]” the “RBA IC50 Ratio” value [1] was 3.0, the “GBA EC50 Ratio” value [2] was 2.4 and the “food intake suppression rate (%)” value [3] was 30%.

With “Ac-[D-Pro24, Ala(4Pip)26, Cha27,36, Aib28,31, Lys30]-PYY(23-36) (Ac-S[dP]R[Ala(piperidin-4-yl)][Cha][Aib]NK[Aib]TRQR[Cha]-NH2; SMILES CC(=O)N[C@@H](CO)C(=O)N1CCC[C@@H]1C(=O)N[C@@H](CCCNC(=N)N)C(=O)N[C@@H](CC1CCNCC1)C(=O)N[C@@H](CC1CCCCC1)C(=O)NC(C)(C)C(=O)N[C@@H](CC(N)=O)C(=O)N[C@@H](CCCCN)C(=O)NC(C)(C)C(=O)N[C@H](C(=O)N[C@@H](CCCNC(=N)N)C(=O)N[C@@H](CCC(N)=O)C(=O)N[C@@H](CCCNC(=N)N)C(=O)N[C@@H](CC1CCCCC1)C(N)=O)[C@@H](C)O) [compound No. 310]” the “RBA IC50 Ratio” value [1] was 1.2, the “GBA EC50 Ratio” value [2] was 1.5 and the “food intake suppression rate (%)” value [3] was 12%.

In the case of “Ac-[D-Hyp24, Iva25, Pya(4)26, Cha27,36, Aib28,31, Lys30]-PYY(23-36) (Ac-S[dHyp][Iva][4Pal][Cha][Aib]NK[Aib]TRQR[Cha]-NH2; SMILES CC[C@](C)(NC(=O)[C@H]1C[C@H](O)CN1C(=O)[C@H](CO)NC(C)=O)C(=O)N[C@@H](Cc1ccncc1)C(=O)N[C@@H](CC1CCCCC1)C(=O)NC(C)(C)C(=O)N[C@@H](CC(N)=O)C(=O)N[C@@H](CCCCN)C(=O)NC(C)(C)C(=O)N[C@H](C(=O)N[C@@H](CCCNC(=N)N)C(=O)N[C@@H](CCC(N)=O)C(=O)N[C@@H](CCCNC(=N)N)C(=O)N[C@@H](CC1CCCCC1)C(N)=O)[C@@H](C)O) [compound No. 297]”, the “RBA IC50 Ratio” value [1] is reported as 1.5, the “GBA EC50 Ratio” value [2] is reported as 1.4 and the “food intake suppression rate (%)” value [3] is reported as 45%.

For “3-Carboxypropionyl-[D-Pro24, Pya(4)26, Cha27,36, Aib28,31, Lys30]-PYY(23-36) (Suc-S[dP]R[4Pal][Cha][Aib]NK[Aib]TRQR[Cha]-NH2; SMILES C[C@@H](O)[C@H](NC(=O)C(C)(C)NC(=O)[C@H](CCCCN)NC(=O)[C@H](CC(N)=O)NC(=O)C(C)(C)NC(=O)[C@H](CC1CCCCC1)NC(=O)[C@H](Cc1ccncc1)NC(=O)[C@H](CCCNC(=N)N)NC(=O)[C@H]1CCCN1C(=O)[C@H](CO)NC(=O)CCC(=O)O)C(=O)N[C@@H](CCCNC(=N)N)C(=O)N[C@@H](CCC(N)=O)C(=O)N[C@@H](CCCNC(=N)N)C(=O)N[C@@H](CC1CCCCC1)C(N)=O) [compound No. 217]”, the “RBA IC50 Ratio” value [1] was 0.96, the “GBA EC50 Ratio” value [2] was 1.2 and the “food intake suppression rate (%)” value [3] was 28%.

For “Tetrahydro-2H-pyran-4-yl-carbamoyl-[Glu23, D-Pro24, Pya(4)26, Cha27,36, Aib28,31, Lys30]-PYY(23-36) (X5-E[dP]R[4Pal][Cha][Aib]NK[Aib]TRQR[Cha]-NH2; ends and bridges not checked) [compound No. 282]”, the “RBA IC50 Ratio” value [1] was 1.1, the “GBA EC50 Ratio” value [2] was 1.6 and the “food intake suppression rate (%)” value [3] was 30%.

“Ac-[D-Pro24, Cha27,36, Leu(Me)28, Lys30, Aib31]-PYY(23-36) (Ac-S[dP]RH[Cha][tBuAla]NK[Aib]TRQR[Cha]-NH2; SMILES CC(=O)N[C@@H](CO)C(=O)N1CCC[C@@H]1C(=O)N[C@@H](CCCNC(=N)N)C(=O)N[C@@H](Cc1c[nH]cn1)C(=O)N[C@@H](CC1CCCCC1)C(=O)N[C@@H](CC(C)(C)C)C(=O)N[C@@H](CC(N)=O)C(=O)N[C@@H](CCCCN)C(=O)NC(C)(C)C(=O)N[C@H](C(=O)N[C@@H](CCCNC(=N)N)C(=O)N[C@@H](CCC(N)=O)C(=O)N[C@@H](CCCNC(=N)N)C(=O)N[C@@H](CC1CCCCC1)C(N)=O)[C@@H](C)O) [compound No. 136]” was tested, and the “food intake suppression rate (%)” value [3] was 10%.

In the case of “[(1S)-1-carboxy-3-methylbutyl]carbamoyl-[D-Pro24, Cha27,36, Leu(Me)28, Lys30, Aib31]-PYY(23-36) (X11-S[dP]RH[Cha][tBuAla]NK[Aib]TRQR[Cha]-NH2; SMILES CC(C)C[C@H](NC(=O)N[C@@H](CO)C(=O)N1CCC[C@@H]1C(=O)N[C@@H](CCCNC(=N)N)C(=O)N[C@@H](Cc1c[nH]cn1)C(=O)N[C@@H](CC1CCCCC1)C(=O)N[C@@H](CC(C)(C)C)C(=O)N[C@@H](CC(N)=O)C(=O)N[C@@H](CCCCN)C(=O)NC(C)(C)C(=O)N[C@H](C(=O)N[C@@H](CCCNC(=N)N)C(=O)N[C@@H](CCC(N)=O)C(=O)N[C@@H](CCCNC(=N)N)C(=O)N[C@@H](CC1CCCCC1)C(N)=O)[C@@H](C)O)C(=O)O) [compound No. 253]”, the “food intake suppression rate (%)” value [3] is reported as 19%.

In the case of “Ac-[Glu23, D-Pro24, Cha27,28,36, Lys30, Aib31]-PYY(23-36) (Ac-E[dP]RH[Cha][Cha]NK[Aib]TRQR[Cha]-NH2; SMILES CC(=O)N[C@@H](CCC(=O)O)C(=O)N1CCC[C@@H]1C(=O)N[C@@H](CCCNC(=N)N)C(=O)N[C@@H](Cc1c[nH]cn1)C(=O)N[C@@H](CC1CCCCC1)C(=O)N[C@@H](CC1CCCCC1)C(=O)N[C@@H](CC(N)=O)C(=O)N[C@@H](CCCCN)C(=O)NC(C)(C)C(=O)N[C@H](C(=O)N[C@@H](CCCNC(=N)N)C(=O)N[C@@H](CCC(N)=O)C(=O)N[C@@H](CCCNC(=N)N)C(=O)N[C@@H](CC1CCCCC1)C(N)=O)[C@@H](C)O) [compound No. 137]”, the “food intake suppression rate (%)” value [3] is reported as 25%.

“Ac-[D-Pro24, Phe26, Cha27,36, Aib28,31, Lys30]-PYY(23-36) (Ac-S[dP]RF[Cha][Aib]NK[Aib]TRQR[Cha]-NH2; SMILES CC(=O)N[C@@H](CO)C(=O)N1CCC[C@@H]1C(=O)N[C@@H](CCCNC(=N)N)C(=O)N[C@@H](Cc1ccccc1)C(=O)N[C@@H](CC1CCCCC1)C(=O)NC(C)(C)C(=O)N[C@@H](CC(N)=O)C(=O)N[C@@H](CCCCN)C(=O)NC(C)(C)C(=O)N[C@H](C(=O)N[C@@H](CCCNC(=N)N)C(=O)N[C@@H](CCC(N)=O)C(=O)N[C@@H](CCCNC(=N)N)C(=O)N[C@@H](CC1CCCCC1)C(N)=O)[C@@H](C)O) [compound No. 345]” was tested, and the “food intake suppression rate (%)” value [3] was 10%.

For “Ac-[D-Pro24, D-Iva25, Cha27,28,36, Aib31]-PYY(23-36) (Ac-S[dP][dIva]H[Cha][Cha]NL[Aib]TRQR[Cha]-NH2; SMILES CC[C@@](C)(NC(=O)[C@H]1CCCN1C(=O)[C@H](CO)NC(C)=O)C(=O)N[C@@H](Cc1c[nH]cn1)C(=O)N[C@@H](CC1CCCCC1)C(=O)N[C@@H](CC1CCCCC1)C(=O)N[C@@H](CC(N)=O)C(=O)N[C@@H](CC(C)C)C(=O)NC(C)(C)C(=O)N[C@H](C(=O)N[C@@H](CCCNC(=N)N)C(=O)N[C@@H](CCC(N)=O)C(=O)N[C@@H](CCCNC(=N)N)C(=O)N[C@@H](CC1CCCCC1)C(N)=O)[C@@H](C)O) [compound No. 182]”, the “RBA IC50 Ratio” value [1] was 14 and the “GBA EC50 Ratio” value [2] was 11.
